In this test the target is YmgB (purified, biotinylated) (Escherichia coli) (UniProt P75993). The test can be described thus: BLI; biotinylated YmgB or YmgB^R74G immobilised on streptavidin biosensors, SpoT^TGS-Helical 2-50 μM as analyte; Blitz, 25 °C; 50 mM Tris-HCl pH 8.0, 500 mM NaCl, 500 mM KCl, 2 mM β-mercaptoethanol, 2% glycerol, BSA 1 mg/ml; KD from steady-state responses, one site model. (BLI is a label-free optical method that tracks binding on a fibre tip over time.)
Sequence of UniProt P75993 (P75993 whole entry): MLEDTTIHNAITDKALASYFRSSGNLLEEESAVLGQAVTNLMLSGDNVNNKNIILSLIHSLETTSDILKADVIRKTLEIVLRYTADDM

“SpoT^TGS-Helical (purified) (domain or fragment)” displayed a Kd of 8.73 µM.

A word on the Kd: it is a measure of binding affinity in units of concentration. Lower therefore signals tighter binding.

Source of the values: PMC10704370.
